Source: publication PMC8954747 (Viruses, 2022)

B1: NS1 ESKV PBM peptide KMARTIESKV (H5N1 A/chicken/Hubei/327/2004), 10-mer (peptide)
peptide: KMARTIESKV
B2: NS1 ESEV PBM peptide KMARTIESEV (H5N1 A/Viet Nam/1194/2004), 10-mer (peptide)
peptide: KMARTIESEV

Assays:
Assay in all cases: ITC
Conditions in all cases: both partners purified
[1] = molecular target: T1, human Scribble (SCRIB) PDZ1 domain (residues 725-815) (human, UniProt Q14160 725-815)
T1 construct: also called PDZ1 WT

[2] = molecular target: T2, human Scribble (SCRIB) PDZ3 domain (residues 1002-1093) (human, UniProt Q14160 1002-1093)
T2 construct: also called wild-type SCRIB PDZ3
T2 sequence (looked up): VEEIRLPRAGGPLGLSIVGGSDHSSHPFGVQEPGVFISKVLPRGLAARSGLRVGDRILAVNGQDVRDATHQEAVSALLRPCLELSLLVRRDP

[3] = molecular target: T3, human Scribble (SCRIB) PDZ2 domain (residues 860-950) (human, UniProt Q14160 860-950)
T3 construct: also called PDZ2 WT
T3 sequence (looked up): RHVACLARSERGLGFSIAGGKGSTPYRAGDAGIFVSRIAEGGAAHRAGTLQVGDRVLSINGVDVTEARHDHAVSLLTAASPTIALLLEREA

[4] = molecular target: T4, human Scribble (SCRIB) PDZ4 domain (residues 1099-1203) (human, UniProt Q14160 1099-1203)
T4 sequence (looked up): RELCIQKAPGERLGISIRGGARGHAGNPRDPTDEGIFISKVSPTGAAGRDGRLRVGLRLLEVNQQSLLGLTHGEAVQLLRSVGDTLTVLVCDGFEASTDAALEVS

T1 sequence (Q14160 725-815): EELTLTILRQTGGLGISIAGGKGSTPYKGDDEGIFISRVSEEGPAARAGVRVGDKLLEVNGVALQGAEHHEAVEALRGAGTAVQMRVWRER

| Binder | Kd [1] [µM] | stoichiometry N [1] | Kd [2] [µM] | stoichiometry N [2] | Kd [3] [µM] | stoichiometry N [3] | Kd [4] [µM] | stoichiometry N [4] |
| --- | --- | --- | --- | --- | --- | --- | --- | --- |
| B1 | 30 | 1.2 | 12.1 | 1.1 | 9.5 | 1.1 |  |  |
| B2 | 21.4 | 1.1 ± 0.1 | 13.1 | 1.1 ± 0.1 | 18.7 | 1 ± 0.03 | 12.2 | 1 ± 0.1 |
